According to PMC7367873, “Dissecting the sequence determinants for dephosphorylation by the catalytic subunits of phosphatases PP1 and PP2A” (Nature Communications, 2020):

B1: FAM83G (protein, UniProt A6ND36 2-823, looked up)
Protein FAM83G: AFSQVQCLDDNHVNWRSSESKPEFFYSEEQRLALEALVARGRDAFYEVLKRENIRDFLSELELKRILETIEVYDPGSEDPRGTGPSQGPEDNGVGDGEEASGADGVPIEAEPLPSLEYWPQKSDRSIPQLDLGWPDTIAYRGVTRASVYMQPPIDGQAHIKEVVRKMISQAQKVIAVVMDMFTDVDIFKDLLDAGFKRKVAVYIIVDESNVKYFLHMCERACMHLGHLKNLRVRSSGGTEFFTRSATKFKGALAQKFMFVDGDRAVCGSYSFTWSAARTDRNVISVLSGQVVEMFDRQFQELYLMSHSVSLKGIPMEKEPEPEPIVLPSVVPLVPAGTVAKKLVNPKYALVKAKSVDEIAKISSEKQEAKKPLGLKGPALAEHPGELPELLPPIHPGLLHLERANMFEYLPTWVEPDPEPGSDILGYINIIDPNIWNPQPSQMNRIKIRDTSQASAQHQLWKQSQDSRPRPEPCPPPEPSAPQDGVPAENGLPQGDPEPLPPVPKPRTVPVADVLARDSSDIGWVLELPKEEAPQNGTDHRLPRMAGPGHAPLQRQLSVTQDDPESLGVGLPNGLDGVEEEDDDDYVTLSDQDSHSGSSGRGPGPRRPSVASSVSEEYFEVREHSVPLRRRHSEQVANGPTPPPRRQLSAPHITRGTFVGPQGGSPWAQSRGREEADALKRMQAQRSTDKEAQGQQFHHHRVPASGTRDKDGFPGPPRYRSAADSVQSSTRNAGPAMAGPHHWQAKGGQVPRLLPDPGSPRLAQNARPMTDGRATEEHPSPFGIPYSKLSQSKHLKARTGGSQWASSDSKRRAQAPRDRKDP
B2: TP53BP2 (protein, UniProt Q13625 1-1128, looked up)
Apoptosis-stimulating of p53 …: MMPMFLTVYLSNNEQHFTEVPVTPETICRDVVDLCKEPGESDCHLAEVWCGSERPVADNERMFDVLQRFGSQRNEVRFFLRHERPPGRDIVSGPRSQDPSLKRNGVKVPGEYRRKENGVNSPRMDLTLAELQEMASRQQQQIEAQQQLLATKEQRLKFLKQQDQRQQQQVAEQEKLKRLKEIAENQEAKLKKVRALKGHVEQKRLSNGKLVEEIEQMNNLFQQKQRELVLAVSKVEELTRQLEMLKNGRIDSHHDNQSAVAELDRLYKELQLRNKLNQEQNAKLQQQRECLNKRNSEVAVMDKRVNELRDRLWKKKAALQQKENLPVSSDGNLPQQAASAPSRVAAVGPYIQSSTMPRMPSRPELLVKPALPDGSLVIQASEGPMKIQTLPNMRSGAASQTKGSKIHPVGPDWSPSNADLFPSQGSASVPQSTGNALDQVDDGEVPLREKEKKVRPFSMFDAVDQSNAPPSFGTLRKNQSSEDILRDAQVANKNVAKVPPPVPTKPKQINLPYFGQTNQPPSDIKPDGSSQQLSTVVPSMGTKPKPAGQQPRVLLSPSIPSVGQDQTLSPGSKQESPPAAAVRPFTPQPSKDTLLPPFRKPQTVAASSIYSMYTQQQAPGKNFQQAVQSALTKTHTRGPHFSSVYGKPVIAAAQNQQQHPENIYSNSQGKPGSPEPETEPVSSVQENHENERIPRPLSPTKLLPFLSNPYRNQSDADLEALRKKLSNAPRPLKKRSSITEPEGPNGPNIQKLLYQRTTIAAMETISVPSYPSKSASVTASSESPVEIQNPYLHVEPEKEVVSLVPESLSPEDVGNASTENSDMPAPSPGLDYEPEGVPDNSPNLQNNPEEPNPEAPHVLDVYLEEYPPYPPPPYPSGEPEGPGEDSVSMRPPEITGQVSLPPGKRTNLRKTGSERIAHGMRVKFNPLALLLDSSLEGEFDLVQRIIYEVDDPSLPNDEGITALHNAVCAGHTEIVKFLVQFGVNVNAADSDGWTPLHCAASCNNVQVCKFLVESGAAVFAMTYSDMQTAADKCEEMEEGYTQCSQFLYGVQEKMGIMNKGVIYALWDYEPQNDDELPMKEGDCMTIIHREDEDEIEWWWARLNDKEGYVPRNLLGLYPRIKPRQRSLA
B3: PPP1R3D (protein, UniProt O95685 1-299, looked up)
Protein phosphatase 1 …: MSRGPSSAVLPSALGSRKLGPRSLSCLSDLDGGVALEPRACRPPGSPGRAPPPTPAPSGCDPRLRPIILRRARSLPSSPERRQKAAGAPGAACRPGCSQKLRVRFADALGLELAQVKVFNAGDDPSVPLHVLSRLAINSDLCCSSQDLEFTLHCLVPDFPPPVEAADFGERLQRQLVCLERVTCSDLGISGTVRVCNVAFEKQVAVRYTFSGWRSTHEAVARWRGPAGPEGTEDVFTFGFPVPPFLLELGSRVHFAVRYQVAGAEYWDNNDHRDYSLTCRNHALHMPRGECEESWIHFI
B4: CDC25B (protein, UniProt P30305 1-580, looked up)
M-phase inducer phosphatase 2: MEVPQPEPAPGSALSPAGVCGGAQRPGHLPGLLLGSHGLLGSPVRAAASSPVTTLTQTMHDLAGLGSETPKSQVGTLLFRSRSRLTHLSLSRRASESSLSSESSESSDAGLCMDSPSPMDPHMAEQTFEQAIQAASRIIRNEQFAIRRFQSMPVRLLGHSPVLRNITNSQAPDGRRKSEAGSGAASSSGEDKENDGFVFKMPWKPTHPSSTHALAEWASRREAFAQRPSSAPDLMCLSPDRKMEVEELSPLALGRFSLTPAEGDTEEDDGFVDILESDLKDDDAVPPGMESLISAPLVKTLEKEEEKDLVMYSKCQRLFRSPSMPCSVIRPILKRLERPQDRDTPVQNKRRRSVTPPEEQQEAEEPKARVLRSKSLCHDEIENLLDSDHRELIGDYSKAFLLQTVDGKHQDLKYISPETMVALLTGKFSNIVDKFVIVDCRYPYEYEGGHIKTAVNLPLERDAESFLLKSPIAPCSLDKRVILIFHCEFSSERGPRMCRFIRERDRAVNDYPSLYYPEMYILKGGYKEFFPQHPNFCEPQDYRPMNHEAFKDELKTFRLKTRSWAGERSRRELCSRLQDQ
B5: MTMR3 (protein, UniProt Q13615 1-1198, looked up)
Phosphatidylinositol-3,5-bisph …: MDEETRHSLECIQANQIFPRKQLIREDENLQVPFLELHGESTEFVGRAEDAIIALSNYRLHIKFKESLVNVPLQLIESVECRDIFQLHLTCKDCKVIRCQFSTFEQCQEWLKRLNNAIRPPAKIEDLFSFAYHAWCMEVYASEKEQHGDLCRPGEHVTSRFKNEVERMGFDMNNAWRISNINEKYKLCGSYPQELIVPAWITDKELESVSSFRSWKRIPAVIYRHQSNGAVIARCGQPEVSWWGWRNADDEHLVQSVAKACASDSRSSGSKLSTRNTSRDFPNGGDLSDVEFDSSLSNASGAESLAIQPQKLLILDARSYAAAVANRAKGGGCECPEYYPNCEVVFMGMANIHSIRRSFQSLRLLCTQMPDPGNWLSALESTKWLHHLSVLLKSALLVVHAVDQDQRPVLVHCSDGWDRTPQIVALAKLLLDPYYRTIEGFQVLVEMEWLDFGHKFADRCGHGENSDDLNERCPVFLQWLDCVHQLQRQFPCSFEFNEAFLVKLVQHTYSCLFGTFLCNNAKERGEKHTQERTCSVWSLLRAGNKAFKNLLYSSQSEAVLYPVCHVRNLMLWSAVYLPCPSPTTPVDDSCAPYPAPGTSPDDPPLSRLPKTRSYDNLTTACDNTVPLASRRCSDPSLNEKWQEHRRSLELSSLAGPGEDPLSADSLGKPTRVPGGAELSVAAGVAEGQMENILQEATKEESGVEEPAHRAGIEIQEGKEDPLLEKESRRKTPEASAIGLHQDPELGDAALRSHLDMSWPLFSQGISEQQSGLSVLLSSLQVPPRGEDSLEVPVEQFRIEEIAEGREEAVLPIPVDAKVGYGTSQSCSLLPSQVPFETRGPNVDSSTDMLVEDKVKSVSGPQGHHRSCLVNSGKDRLPQTMEPSPSETSLVERPQVGSVVHRTSLGSTLSLTRSPCALPLAECKEGLVCNGAPETENRASEQPPGLSTLQMYPTPNGHCANGEAGRSKDSLSRQLSAMSCSSAHLHSRNLHHKWLHSHSGRPSATSSPDQPSRSHLDDDGMSVYTDTIQQRLRQIESGHQQEVETLKKQVQELKSRLESQYLTSSLHFNGDFGDEVTSIPDSESNLDQNCLSRCSTEIFSEASWEQVDKQDTEMTRWLPDHLAAHCYACDSAFWLASRKHHCRNCGNVFCSSCCNQKVPVPSQQLFEPSRVCKSCYSSLHPTSSSIDLELDKPIAATSN
B6: KIF23 (protein, UniProt Q02241 1-960, looked up)
Kinesin-like protein KIF23: MKSARAKTPRKPTVKKGSQTNLKDPVGVYCRVRPLGFPDQECCIEVINNTTVQLHTPEGYRLNRNGDYKETQYSFKQVFGTHTTQKELFDVVANPLVNDLIHGKNGLLFTYGVTGSGKTHTMTGSPGEGGLLPRCLDMIFNSIGSFQAKRYVFKSNDRNSMDIQCEVDALLERQKREAMPNPKTSSSKRQVDPEFADMITVQEFCKAEEVDEDSVYGVFVSYIEIYNNYIYDLLEEVPFDPIKPKPPQSKLLREDKNHNMYVAGCTEVEVKSTEEAFEVFWRGQKKRRIANTHLNRESSRSHSVFNIKLVQAPLDADGDNVLQEKEQITISQLSLVDLAGSERTNRTRAEGNRLREAGNINQSLMTLRTCMDVLRENQMYGTNKMVPYRDSKLTHLFKNYFDGEGKVRMIVCVNPKAEDYEENLQVMRFAEVTQEVEVARPVDKAICGLTPGRRYRNQPRGPVGNEPLVTDVVLQSFPPLPSCEILDINDEQTLPRLIEALEKRHNLRQMMIDEFNKQSNAFKALLQEFDNAVLSKENHMQGKLNEKEKMISGQKLEIERLEKKNKTLEYKIEILEKTTTIYEEDKRNLQQELETQNQKLQRQFSDKRRLEARLQGMVTETTMKWEKECERRVAAKQLEMQNKLWVKDEKLKQLKAIVTEPKTEKPERPSRERDREKVTQRSVSPSPVPLSSNYIAQISNGQQLMSQPQLHRRSNSCSSISVASCISEWEQKIPTYNTPLKVTSIARRRQQEPGQSKTCIVSDRRRGMYWTEGREVVPTFRNEIEIEEDHCGRLLFQPDQNAPPIRLRHRRSRSAGDRWVDHKPASNMQTETVMQPHVPHAITVSVANEKALAKCEKYMLTHQELASDGEIETKLIKGDIYKTRGGGQSVQFTDIETLKQESPNGSRKRRSSTVAPAQPDGAESEWTDVETRCSVAVEMRAGSQLGPGYQHHAQPKRKKP

tested on: GFP-14-3-3β and its binding proteins; experiment: GFP-14-3-3β co-IP with LC-MS/MS label-free quantification, untreated versus PP1c-treated; parameters: species or system human; conditions: GFP-14-3-3β co-IP, PP1vsUntrted, Perseus raw output, LFQ intensity difference

Row | Molecule | Difference
1 | B1 | -4.783

same assay, conditions: pairwise comparison PP1 vs untreated, student's t-test; 3 replicates each; LC-MS/MS label-free quantification

Row | Molecule | Difference (log2), PP1 vs untreated [log2]
2 | B2 | -4.694
3 | B1 | -4.783
4 | B3 | -4.778
5 | B4 | -5.046
6 | B5 | -4.593
7 | B6 | -4.537

tested on: GFP-14-3-3β; experiment: GFP-14-3-3β co-IP with LC-MS/MS, untreated GFP-14-3-3β versus GFP control (14-3-3 interactome); assay type: binding, human; conditions: pairwise comparison untreated GFP-14-3-3β vs GFP, student's t-test; 3 replicates each; LC-MS/MS label-free quantification

Row | Molecule | Difference (log2), untreated vs GFP [log2]
8 | B2 | 3.807
9 | B1 | 4.695
10 | B3 | 3.78
11 | B4 | 4.101
12 | B5 | 4.385
13 | B6 | 6.386
